This is an account of results in patent publication US20220073608A1 (JIANGSU HUAIYU PHARMACEUTICAL, published 2022).

For assay [1], the target named is T1, monkey SEMA4D, full length, on CHO-K1 cells (CHO-K1 cSEMA4D) (monkey).
T1 construct: whole, on cells; also called monkey SEMA4D recombinant cells
The experiment in a line: FACS, CHO-K1 cSEMA4D cells; Ab 2.67 nM. How it is done:
(§1) After the cells were counted, they were diluted with PBS to 2×10⁶ cells per milliliter. After washing, 100 μL of diluted and purified leading antibodies was added to each well and the plate was incubated for 1 hour on ice. […] Cells were washed 2 times by centrifugation with FACS buffer. The cells were suspended with 200 μL of FACS buffer, FACS (FACS Verse, purchased from BD) was used to detect and analyze the results.

For assay [2], the target named is T1, monkey SEMA4D, full length, on CHO-K1 …. The assay can be described thus: FACS, CHO-K1 cSEMA4D cells; Ab 0.000853 nM. How it is done:
as §1
(Flow cytometry measures light scatter and fluorescence of single cells or particles in a stream.)

Assay [3] deals with T2, hSEMA4D ECD-His (His-tagged human SEMA4D protein extracellular domain, Met22-Arg734) (human, UniProt Q92854 22-734).
T2 construct: Expressed in CHO-S cells, purified on Ni column; also called protein immunogen; immunogen A; not shown: His tag of the pCP vector
T2 sequence: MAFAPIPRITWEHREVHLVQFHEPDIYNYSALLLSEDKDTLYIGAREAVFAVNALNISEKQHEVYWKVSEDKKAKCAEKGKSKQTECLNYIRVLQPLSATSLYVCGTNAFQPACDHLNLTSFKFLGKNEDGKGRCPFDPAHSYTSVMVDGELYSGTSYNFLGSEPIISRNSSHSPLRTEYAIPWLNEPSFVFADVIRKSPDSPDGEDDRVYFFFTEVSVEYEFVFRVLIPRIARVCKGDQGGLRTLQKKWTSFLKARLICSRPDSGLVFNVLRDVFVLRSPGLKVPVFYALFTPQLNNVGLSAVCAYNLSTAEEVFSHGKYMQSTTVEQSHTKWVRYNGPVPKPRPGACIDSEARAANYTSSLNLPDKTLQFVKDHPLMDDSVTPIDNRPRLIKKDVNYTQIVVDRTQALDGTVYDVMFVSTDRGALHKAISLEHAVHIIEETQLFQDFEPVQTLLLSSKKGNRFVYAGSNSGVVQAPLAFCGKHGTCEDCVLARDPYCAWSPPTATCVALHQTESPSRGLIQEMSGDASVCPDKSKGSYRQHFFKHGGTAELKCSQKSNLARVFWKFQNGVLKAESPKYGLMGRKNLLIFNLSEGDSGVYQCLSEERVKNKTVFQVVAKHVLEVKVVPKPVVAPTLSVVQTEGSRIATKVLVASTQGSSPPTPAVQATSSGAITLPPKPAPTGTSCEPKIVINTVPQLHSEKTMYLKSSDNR
The assay can be described thus: ELISA, coated hSEMA4D ECD-His; Ab 6.67 nM. The procedure: First, hSEMA4D ECD-His was diluted with PBS to a final concentration of 1.0 μg/mL, and then was added to a 96-well ELISA plate, 100 μL per well, sealed with plastic film and incubated overnight at 4° C. On the next day, the plate was washed with a plate washing solution, that is, PBS buffer containing 0.05% (v/v) Tween20, for 4 times, and added with blocking solution, that is, PBS buffer containing 0.05% (v/v) Tween20 and 2% (w/w) BSA, blocked at 37° C. for 1 hour. The blocking solution was poured out and the plate was washed 4 times with the plate washing solution. 100 μL of the purified leading antibodies obtained in Examples 1 and 2 was added to each well. After incubation at 37° C. for 1 hour, the plate was washed 4 times with a plate washing solution. 100 μL of horseradish peroxidase (HRP) labeled secondary antibody (purchased from Sigma) was added at a dilution of 1:10000 to each well, and the plate was incubated at 37° C. for 1 hour, and washed 4 times with a plate washing solution. 100 μL TMB substrate was added to each well, and the plate was incubated at room temperature for 5 minutes, and added with 100 μL stop solution (1.0N HCl) to each well. A microplate reader (SpectraMax M5e, purchased from Molecular Device) was used to read the A450 nm value. […] Wherein, the data in the table was the OD450 nm value.
On the technique in general: An ELISA detects its analyte on a solid surface through an enzyme-linked reagent.

Assay [4] has as its target T3, human SEMA4D, full length, on CHO-K1 cells (CHO-K1 hSEMA4D) (human, UniProt Q92854 22-862).
T3 construct: whole, on cells; also called human SEMA4D recombinant cells
T3 sequence (looked up): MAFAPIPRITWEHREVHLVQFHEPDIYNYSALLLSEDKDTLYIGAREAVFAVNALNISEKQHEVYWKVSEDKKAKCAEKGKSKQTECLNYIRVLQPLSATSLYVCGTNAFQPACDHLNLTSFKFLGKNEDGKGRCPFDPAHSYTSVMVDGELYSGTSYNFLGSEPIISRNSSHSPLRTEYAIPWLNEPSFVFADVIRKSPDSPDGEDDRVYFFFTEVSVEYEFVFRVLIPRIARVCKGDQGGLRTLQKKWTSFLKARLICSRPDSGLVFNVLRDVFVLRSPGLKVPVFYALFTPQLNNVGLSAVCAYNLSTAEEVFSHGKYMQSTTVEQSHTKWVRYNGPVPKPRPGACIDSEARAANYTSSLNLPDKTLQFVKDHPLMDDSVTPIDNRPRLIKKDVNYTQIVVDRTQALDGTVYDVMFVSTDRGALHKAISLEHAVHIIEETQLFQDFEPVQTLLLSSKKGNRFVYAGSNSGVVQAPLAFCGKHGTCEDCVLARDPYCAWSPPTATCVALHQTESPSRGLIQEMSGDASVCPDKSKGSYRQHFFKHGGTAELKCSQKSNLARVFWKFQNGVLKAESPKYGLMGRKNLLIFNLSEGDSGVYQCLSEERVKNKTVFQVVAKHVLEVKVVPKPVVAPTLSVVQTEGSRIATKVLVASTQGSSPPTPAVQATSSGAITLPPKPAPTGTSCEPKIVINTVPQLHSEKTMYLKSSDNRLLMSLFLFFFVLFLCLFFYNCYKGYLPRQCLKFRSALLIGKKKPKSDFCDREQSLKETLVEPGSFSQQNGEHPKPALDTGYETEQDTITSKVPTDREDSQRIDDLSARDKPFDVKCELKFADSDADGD
The assay can be described thus: FACS, CHO-K1 hSEMA4D cells; Ab 2.67 nM. The procedure: The medium was aspirated, the cells were washed once with PBS buffer (purchased from Invitrogen), and then treated with cell dissociation fluid (TrypLE™ Express Enzyme, purchased from Life technology), and the cells were collected. After the cells counted, the cells were washed once with PBS phosphate buffer, and diluted to 3×10⁶ cells per milliliter, and added to the 96-well FACS reaction plate as 100 μL per well. 2% (w/w) fetal calf serum was added to PBS phosphate buffer as FACS buffer, with which the cells were washed once by centrifugation at 2000 rpm 4° C. 100 μL of diluted and purified leading antibodies was added to each well and the plate was incubated for 1 hour on ice. […] Cells were washed 2 times by centrifugation with FACS buffer. The cells were suspended with 200 μL of FACS buffer, and FACS (FACS Verse, purchased from BD) was used to detect and analyze the results.

B1: 32C8F10 (antibody, V domains shown)
VH: EVQLQQSGAELVRPGASVKLSCTASGFNIKDEYIHWVKQRPEQGLEWIGWIDPANGHTEYASRFQAKATITADTSSNTAYLQLSSLTSEDTAVYYCTTGDYDGFAYWGQGTLVTVST
VL: QIVLTQSPAIMSASPGEKVTISCSARSSVSYMYWYQQKPGSSPKPWIYRTSNLASGVPARFSGSGSGTSYSLTISSMEAEDAATYYCQHYHTYPYTFGGGTKLEIK
notes: Mouse monoclonal antibody purified from hybridoma supernatant on protein A
On to B1, for which the MFI was determined as 4920 in assay [1], 49.7 in assay [2] and 6170 in assay [4]. Besides, the OD450 nm in assay [3] stood at 2.32.

B2: 31C11G2 (antibody, V domains shown)
VH: EVQLQQSGAELVRPGASVKLSCTASGFNIKDEYIHWVKQRPEQGLEWIGWIDPANGHTEYASRFQAKATITADTSSNTAYLQLSSLTSEDTAVYYCTTGDYDGFVYWGQGTLVTVST
VL: QIVLTQSPAIMSASPGEKVTIFCSARSSVSYMYWYQQKPGSSPKPWIYRTSNLASGVPARFSGSGSGTSYSLTISSMEAEDAATYYCQHYHTYPYTFGGGTKLEIK
notes: as for B1
Regarding B2, the MFI worked out at 4420 in assay [1], 81.4 in assay [2] and 5970 in assay [4]. Moreover, the OD450 nm in assay [3] was found to be 1.74.

B3: 31G10C5 (antibody, V domains shown)
VH: EVQLQQSGAELVRPGASVKLSCTASGFNIKDDYIHWVKQRPEQGLEWIGWIDPANGHIEYASNFQAKATITADTSSNTAYLQLSSLTSEDTAVYYCTTGDYDGFTYWGQGTLVTVST
VL: QIVLTQSPAIMSASPGEKVTISCSARSSVSYMYWYQQKPGSSPKPWIYRTSNLASGVPARFSGSGSGTSYSLTISSMEAEDAATYYCQHYHTYPYTFGGGTKLEIK
notes: as for B1
B3: the values for the MFI in assay [1], in assay [2] and in assay [4] were 4540, 61.5 and 5860, respectively. Besides, in assay [3], the OD450 nm is 1.59.

B4: 37C4F7 (antibody, V domains shown)
VH: EFQLQQSGPEVVKPGASVKISCKASGYSFTDYNMNWMKQSKGKSLEWIGVINPNYGTTTYNQNFKGKATLTVDQSSSTAYMQLNSLTSEDSAVYYCARDMYYVYAYYTMDYWGQGTSVTVSS
VL: DVVMTQTPLSLPVSLGDQASISCRSSQSLVHSNGHTYLHWYLQRPGQSPTLLIYKVSNRFSGVPDRFSGSGSGTDFTLKISRVEAEDLGVYFCSQGTHVPWTFGGGTKLEIK
notes: as for B1
Turning to B4, the results for the MFI in assay [1], in assay [2] and in assay [4] were 1940, 29 and 2340, respectively. The OD450 nm in assay [3] stood at 1.19.

B5: 38H2E3 (antibody, V domains shown)
VH: EFQLQQSGPEVVKPGASVKISCKASGYSFTDYNMNWMKQSKGKSLEWIGVISPDYGTTTYNQNFKDKATLTVDQSSSTAYMQLNSLTSEDSAVYYCAKDMYYVYAYYTMDYWGHGTSVTVSS
VL: DVVMTQTPLSLPVSLGDQASISCRSSQSLVHSNGHTYLHWYLQRPGQSPTLLIYKVSNRFSGVPDRVSGSGSGTDFTLKISRVEAEDLGVYFCSQGTHVPRTFGGGTKLEIK
notes: as for B1
On to B5, for which the MFI in assay [1] was found to be 1750; in assay [2], 26.1; in assay [4] it was 2370. The same molecule gave an OD450 nm in assay [3] of 1.46.

B6: 42B7G2 (antibody, V domains shown)
VH: QVQLQQSGAELARPGASVKLSCKASGYTFTDYGISWVKQRTGQGLEWIGEIYLRNDNSYYNEKFKGKATLTADKSSNTAYMELRSLTSEDSAVYFCARWGDHGNNYEDAMDYWGQGTSVTVSS
VL: DIVLTQSPASLAMSLGKRATISCRASESVSIIGSNLIHWYQQKPGQPPKLLIYHASNLETGVPARFSGSGSRTDFTLTIDPVEEDDVAIYYCLQSRKVPYTFGGGTKLEIK
notes: as for B1
Regarding B6, the values for the MFI in assay [1], in assay [2] and in assay [4] were 2640, 54.5 and 3790, respectively. Further, in assay [3], the OD450 nm worked out at 2.07.

B7: 37F11F9 (antibody, V domains shown)
VH: EVQLQQSGPVLVKPGASVKMSCKASGYTFTDYYMNWVKQSHGKSLEWIGLINPYSGGSTFNQKFKAKATLTVDKSSSSAYMDLNSLTSEDSAVYYCARVGDGYYGVTHGMDYWGQGTSVTVSS
VL: DIVMTPSQKFMSTTVGDRVSITCKASQNVGTAVAWYQQKPGQSPTILIYSASNRYTGVPDRFTGSGSGTDFTLTISNMKSEDLADYFCQQYYIYPFTFAAGTKLELK
notes: as for B1
With B7, the figures for the MFI in assay [1], in assay [2] and in assay [4] were 2170, 29.5 and 2880, respectively. The molecule also showed an OD450 nm in assay [3] of 1.54.
